Assay: yeast display, Sf9 membrane polyspecificity reagent, FACS + sequencing; frameworks hold sequencing errors
How it was run: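 Genes from sorted yeast were amplified by colony PCR, read by MiSeq 2 × 250 sequencing and filtered on CDR length. These cells carried a synthetic nanobody library in Saccharomyces cerevisiae BJ5465 and were sorted by FACS into low and high (top ~1%) gates on anti-HA and streptavidin fluorescence. Polyreactivity is labelled according to the gate of origin.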

Sequence	polyreactivity (PSR sort gate)
QVQLVESGGGLVQAGGSLRLSCAASGRILFWYAMGWYRQAPGKERELVAAISSSGGSTYYADSVKGRFTISRDNAKNTFYLLMNSLKPEDTAVYYCAADGVVDYGYWFVVEYEYWGQGTQVTVSS	high polyreactivity
QVQLVESGGGLVQAGGSLRLSCAASGRILGFYAMGWYRQAPGKERELVDSINWSGTRTYYADSVKARFTISRDNAKNTVYLQLNSLKPEDTAVYYCAAERYPYGVTYSKLDYWGQGTQVTVSS	high polyreactivity
QVQLVESGGGLVQAGGSLRLSCAASGRILGPNAMGWYRQAPGKERELVAAINSGGSTNYADSVKGRFTISRDNAKNTVYLQMNSLKPEDTAVSYCAPDKARVAGYGVEYDYWGQGTQVTVSS	low polyreactivity
QVQLVESGGGLVQAGGSLRLSCAASGRILGRNAMGWYRQAPGKEREFVAGISYSGTSTYYADSVKGRFTISRDNAKNTVYLQMNSLKPEDTAVYYCAVYTGRQPRVSGKYYYWGQGTQVTVSS	high polyreactivity
QVQLVESGGGLVQAGGSLRLSCAASGRILGRNAMGWYRQAPGKERELVAAISSGGNTYYADSVKGRFTISRDNAKNTVYLQMNSLKPEDTAVYYCNTGTYKDWGQGTQVTVSS	low polyreactivity
QVQLVESGGGLVQAGGSLRLSCAASGRILGRYAMGWYRQEPGKERELVASIRGGGSTNYADSVKGRFTISRDNAKNTVYLQMNSLKPEDTAVYYCAKDYDVRVYEYNYWGQGTQVTVSS	low polyreactivity
QVQLVESGGGLVQAGGSLRLSCAASGRILGYYSMGWYRQAPGKERELVAGITSGGSTYYADSVKGRFTISRDNAKNTVYLQMNSLKPEDTAVYYCATVHGVYQRRYYFWGQGTQVTVSS	high polyreactivity
QVQLVESGGGLVQAGGSLRLSCAASGRILIRKAMGWYRQAPGKERELVAAINRGGGSTYYADSVKGRITISRDNAKNTVYLQMISLNPDDTAVYYCAADRKAGYSRVDGDYWGQGTQVTVSS	low polyreactivity
QVQLVESGGGLVQAGGSLRLSCAASGRILKWYAMGGYRQAPGKVRELVAAISARGGSTFYADSVKGRFTSSRDNAKNTVYLPMNSLKPEDTAVYYCAKRWPYTMYYWGQGTQVTVSS	high polyreactivity
QVQLVESGGGLVQAGGSLRLSCAASGRILKYNAMGWYRQAPGKERELVAAISYRGGSTYYADSVKGRFTISRDNAKNTVYLQMNSLKPEDTAVYYCNAGGGILNGPLFDYWGQGTQVTVSS	low polyreactivity
QVQLVESGGGLVQAGGSLRLSCAASGRILLRYAMGWYRQAPGQERELVAAISQRGGRTYYADSVKGRFTISRDNAKNTVNLQMNSLKPEDTAVYYCAAASQQRSPRYGYWGQGTQVTVSS	high polyreactivity
QVQLVESGGGLVQAGGSLRLSCAASGRILLYKAMGWYRQAPGKERELVAAISRSGGSTYYADSVKGRFTISRDNAKNTVYLQMNSLKPEDTAVYYCAAQHGYPRYYFWGQGTQVTVSS	high polyreactivity
QVQLVESGGGLVQAGGSLRLSCAASGRILLYNAMGWYRQAPGKERELVAAISRSGGYTYYADSVNWRFTISRDNAKNTVYLQMNSLKPEDTAVYYCAAQHGYPRYYYWGQGTQVTVSS	high polyreactivity
QVQLVESGGGLVQAGGSLRLSCAASGRILPGYAMGWYRQAPGKERELVAAIRGNGDSTYYADSVKGRFTISRDNAKNTVYLQMNSLKPEDTAVYFCAARRVSTIARDSYRGRKYGYWGQGTQVTVSS	low polyreactivity
QVQLVESGGGLVQAGGSLRLSCAASGRILPYNVMGWYRQAPGKEWEFVAAITGSGGDTYYADSVKGRFTISRDTAKNTVYLQMNSLKPEDTAVYYCAAAPYIGGSFGQTPGSGYWGQGTQVTVSS	low polyreactivity
QVQLVESGGGLVQAGGSLRLSCAASGRILRPYAMGWYRQAPGKERELDAGITVRGGTTYYADSVKGRFTISRDNAKNTVYLQMNILKPEDTAVYYCAATDIHYGPSYIPYWYGYCGQGTQVTVSS	high polyreactivity

Sequence	polyreactivity (PSR sort gate)
QVQLVESGGGLVQAGGSLRLSCAASGRILRYYAMGWYRQAPGKERELVASITSGGSTYYADSVKGRFTISRDNAKNTVSLQMNSLKPEDTAVYYCAARNSYRVDLSYYAYDYWGQGTQVTVSS	high polyreactivity
QVQLVESGGGLVQAGGSLRLSCAASGRILSSNAMGWYRQAPRKERELVAAISWSGGSTYYADSVKGRFTISRDNAKNTVYFQMNSLKPEDTAVYYCAAPFTTTFDYWGKGTQVTVSS	low polyreactivity
QVQLVESGGGLVQAGGSLRLSCAASGRILSVYAMGWYRQAPGKERELVAAIDYSGGSTNYADSVKGRFTISRDNAKNTVYLQMNSLKPEDTAVYYCNREGGAIAWRYLLEYLYSWGQGTQVTVSS	low polyreactivity
QVQLVESGGGLVQAGGSLRLSCAASGRILSVYAMGWYRQAPGKERELVAAIEYSGGSTNYADSVKVRFTISRDTSKHTVYLLMNSLLPEDTAVYYCNGEGGAIAWRYLLEYLYSWGQGTQVTVSS	low polyreactivity
QVQLVESGGGLVQAGGSLRLSCAASGRILVLNAMGWYRQAPGKERELVADITSGGSTYYADSVKGRFTISRDNAKNTVYLQMNSLKPEDTAVYYCAADLPYSLDYRSEDDYWGQGTQVTVSS	low polyreactivity
QVQLVESGGGLVQAGGSLRLSCAASGRILVPYAMGWYRQAPGKERELVDAISSGGSTKYADSVKGRFTISRDNAKNTVYLQMNSLKPEDTAVYYCASRIGSGSYPYPRYDYWGQGTQVTVSS	high polyreactivity
QVQLVESGGGLVQAGGSLRLSCAASGRILVQNDMGWYRQEPGKERELVAAIRSDGSTSYADSVKGRFTISRDNAKNTVYLQMNSLKPEDTAFYYCAARIDWTGGEYDYWGQGTQVTVSS	low polyreactivity
QVQLVESGGGLVQAGGSLRLSCAASGRILVYNTMGWSRQAPGKERELVAGIRRGGSTDYADSVKGRFTISRDNAKNTVYLQMNSLNAEDTAVYYCNARYSTGYTKLGYWGQGTQVTVSS	low polyreactivity
QVQLVESGGGLVQAGGSLRLSCAASGRILVYYAMGWYRQAPGKERELVAAIRSSGSSTYYSDSVKGRFTISRDNAKNTVYLQMNSLKPEDTAVYYCAAYYYIGGKYGSQVYEYDYWGQGTQVTVSS	low polyreactivity
QVQLVESGGGLVQAGGSLRLSCAASGRILWGYAMGWYRQAPGKERELVAAITWSTGTTSYADSVKGRFTISRDNAKNTVYLQMNSLKPEDTAVYYCARRQWRTQLVYGSRRDYWGQGTQVTVSS	low polyreactivity
QVQLVESGGGLVQAGGSLRLSCAASGRILWNAMGWYRQAPGKERELVAGITYSGGSTYYADSVKGRFTISRDNAKNTVYLQMNSLKPEDTAVYYCNAGVGARESDYWGQGTQVTVSS	low polyreactivity
QVQLVESGGGLVQAGGSLRLSCAASGRILWSYAMGWYRQAPGKEREFVATINRSGGNTHYADSVKGRFTISRDNAKNTVYLQMNSLKPEDTAVYYCAARNLVPYGYQGLRYYYWGQGTQVTVSS	high polyreactivity
QVQLVESGGGLVQAGGSLRLSCAASGRILYIYAMGWYRQAPGKERELVASISWTDGSTYYADSVKGRFTISRDNAKNTVYLQMNSLKPEDTAVYYCNAAYYYYWDLKKYNYWGQGTQVTVSS	low polyreactivity
QVQLVESGGGLVQAGGSLRLSCAASGRILYIYAMGWYRQAPGKERELVASISWTDGSTYYADSVKGRFTISRDNAKNTVYLQMNSLKPEDTAVYYCNAAYYYYWELKKYNYWGPGTQVTVSS	low polyreactivity
QVQLVESGGGLVQAGGSLRLSCAASGRILYNYAMGWYRQAPGKERELVAAISSGGSTNYADSVKGRFTISRDNAKNTVYLQMNSLKPEDTAVYYCAAYRGHSWRGLYRWSDYDYWGQGTQVTVSS	low polyreactivity

— the nanobody polyreactivity screen of Harvey et al. (2022)
